What was measured:
[1] = test system: transplant-ineligible newly diagnosed multiple myeloma (NDMM); assay: MAIA subgroup analysis by age (<75 vs ≥75 y): efficacy; format: in vivo, human; conditions: for PFS HR (95% CI): DRd vs Rd
Method: (§1) To examine the impact of age on the efficacy and safety of D-Rd vs Rd in this patient population, a subgroup analysis was conducted within patients <75 and >75 y of age.
(§2) Transplant-ineligible NDMM patients were randomized 1:1 to Rd±DARA; stratification was based on age (<75 vs >75 years), ISS (I, II, III), and region (North America vs Other). In standard Rd dosing, patients received 28-day cycles of lenalidomide 25 mg PO QD on Days 1-21 and dexamethasone 40 mg PO on Days 1, 8, 15 and 22 until progression. A portion of patients received 10 mg lenalidomide and 20 mg dexamethasone at the beginning of the treatment. In the DRd arm, patients received daratumumab (DARZALEX®) 16 mg/kg IV QW for Cycles 1-2, Q2W for Cycles 3-6, and Q4W thereafter until progression. PFS was the primary endpoint.

[2] = test system: patients with newly diagnosed multiple myeloma ineligible for HDC and ASCT; assay: MAIA: safety, adverse events graded by NCI-CTCAE version 4, treatment discontinuations
Description: Safety will be measured by adverse events, laboratory test results, ECGs, vital sign measurements, physical examination findings, and assessment of ECOG performance status score.
Safety analyses included adverse event assessment graded in severity according to NCI-CTCAE version 4, electrocardiograms, clinical laboratory testing, physical examinations, and vital signs.
The safety population included patients who received any dose of trial treatment.

[3] = test system: transplant-ineligible NDMM patients; assay: MAIA subgroup analysis by age (<75 vs >75 y): safety (TEAEs, discontinuations); format: in vivo, human
Method: as §1, §2

[4] = Grade 3 or 4, safety population
[5] = grade 3/4 TEAEs, <75 y patients
[6] = grade 3/4 TEAEs, >75 y patients

Substance: daratumumab (DARZALEX®) group: daratumumab (DARZALEX®) in combination with lenalidomide and dexamethasone
- 30-mo PFS ([1]; <75 y): 75%
- MRD-negative rate (10^−5) ([1]; <75 y): 28%
- ORR ([1]; <75 y): 95%
- ≥CR ([1]; <75 y): 52%
- ≥VGPR ([1]; <75 y): 81%
- PFS HR (95% CI) ([1]; <75 y, listed as D-Rd): 0.50
- PFS HR (95% CI) ([1]; <75 y, listed as DRd): 0.50 (0.35-0.71)
- PFS Median ([1]; <75 y, median follow-up 28 months, listed as D-Rd): not reached
- 30-mo PFS ([1]; ≥75 y): 66%
- MRD-negative rate (10^−5) ([1]; ≥75 y): 19%
- ORR ([1]; ≥75 y): 90%
- ≥CR ([1]; ≥75 y): 41%
- ≥VGPR ([1]; ≥75 y): 77%
- PFS HR (95% CI) ([1]; ≥75 y, listed as D-Rd): 0.63
- PFS HR (95% CI) ([1]; ≥75 y, listed as DRd): 0.63 (0.44-0.92)
- patients with adverse events leading to discontinuation of trial treatment [2]: 7.1%
- adverse events leading to death ([2]; % of patients): 6.9%
- invasive second primary malignancies ([2]; % of patients): 3.3%
- pneumonia as adverse event leading to death ([2]; % of patients): 0.5%
- pneumonia as serious adverse event ([2]; % of patients): 13.2%
- serious adverse events ([2]; % of patients): 62.9%
- Any infusion-related reaction ([2]; Any Grade, safety population): 149 (40.9) number of patients (percent)
- Asthenia ([2]; Any Grade, safety population): 117 (32.1) number of patients (percent)
- Back pain ([2]; Any Grade, safety population): 123 (33.8) number of patients (percent)
- Constipation ([2]; Any Grade, safety population): 149 (40.9) number of patients (percent)
- Diarrhea ([2]; Any Grade, safety population): 207 (56.9) number of patients (percent)
- Fatigue ([2]; Any Grade, safety population): 147 (40.4) number of patients (percent)
- Invasive second primary malignancy ([2]; Any Grade, safety population): 12 (3.3) number of patients (percent)
- Nausea ([2]; Any Grade, safety population): 115 (31.6) number of patients (percent)
- Peripheral edema ([2]; Any Grade, safety population): 140 (38.5) number of patients (percent)
- Second primary malignancy ([2]; Any Grade, safety population): 32 (8.8) number of patients (percent)
- anemia ([2]; Any Grade, safety population): 126 (34.6) number of patients (percent)
- leukopenia ([2]; Any Grade, safety population): 68 (18.7) number of patients (percent)
- lymphopenia ([2]; Any Grade, safety population): 66 (18.1) number of patients (percent)
- pneumonia ([2]; Any Grade, safety population): 82 (22.5) number of patients (percent)
- neutropenia ([2]; Any Grade, safety population (N = 364 vs 365)): 207 (56.9) number of patients (percent)
- Any infusion-related reaction [2, 4]: 10 (2.7) number of patients (percent)
- Asthenia [2, 4]: 16 (4.4) number of patients (percent)
- Back pain [2, 4]: 11 (3.0) number of patients (percent)
- Constipation [2, 4]: 6 (1.6) number of patients (percent)
- Diarrhea [2, 4]: 24 (6.6) number of patients (percent)
- Fatigue [2, 4]: 29 (8.0) number of patients (percent)
- Nausea [2, 4]: 5 (1.4) number of patients (percent)
- Peripheral edema [2, 4]: 7 (1.9) number of patients (percent)
- anemia [2, 4]: 43 (11.8) number of patients (percent)
- leukopenia [2, 4]: 40 (11.0) number of patients (percent)
- lymphopenia [2, 4]: 55 (15.1) number of patients (percent)
- neutropenia [2, 4]: 182 (50.0) number of patients (percent)
- pneumonia [2, 4]: 50 (13.7) number of patients (percent)
- treatment discontinued due to adverse events ([2]; at clinical cutoff date Sep. 24, 2018): 7.4%
- anemia ([2]; grade 3/4 adverse events): 11.8%
- leukopenia ([2]; grade 3/4 adverse events): 11.0%
- lymphopenia ([2]; grade 3/4 adverse events): 15.1%
- neutropenia ([2]; grade 3/4 adverse events): 50.0%
- pneumonia ([2]; grade 3/4 adverse events): 13.7%
- discontinued treatment due to neutropenia ([2]; in vivo): no patients
- invasive second primary malignancies: hematologic malignancies ([2]; in vivo): 0.5%
- invasive second primary malignancies: solid tumors ([2]; in vivo): 2.7%
- lenalidomide dose delays, reductions, re-escalations, or skipping (combined) due to treatment-emergent adverse events ([2]; in vivo): 77.5%
- lenalidomide dose discontinuations due to treatment-emergent adverse events ([2]; in vivo): 20.9%
- discontinuation rate due to infections ([3]; <75 y): 1%
- discontinued lenalidomide due to TEAEs ([3]; <75 y): 15%
- discontinued treatment due to TEAEs ([3]; <75 y): 5%
- discontinuation rate due to infections ([3]; >75 y): 0%
- discontinued lenalidomide due to TEAEs ([3]; >75 y): 29%
- discontinued treatment due to TEAEs ([3]; >75 y): 10%
- anemia [3, 5]: 9%
- leukopenia [3, 5]: 10%
- lymphopenia [3, 5]: 12%
- neutropenia [3, 5]: 43%
- pneumonia [3, 5]: 13%
- anemia [3, 6]: 16%
- leukopenia [3, 6]: 12%
- lymphopenia [3, 6]: 19%
- neutropenia [3, 6]: 60%
- pneumonia [3, 6]: 15%
- thrombocytopenia [3, 6]: 8%
